In this data set the target is T1, VentX (Homo sapiens, UniProt O95231 SEQ:1-258).
T1 sequence: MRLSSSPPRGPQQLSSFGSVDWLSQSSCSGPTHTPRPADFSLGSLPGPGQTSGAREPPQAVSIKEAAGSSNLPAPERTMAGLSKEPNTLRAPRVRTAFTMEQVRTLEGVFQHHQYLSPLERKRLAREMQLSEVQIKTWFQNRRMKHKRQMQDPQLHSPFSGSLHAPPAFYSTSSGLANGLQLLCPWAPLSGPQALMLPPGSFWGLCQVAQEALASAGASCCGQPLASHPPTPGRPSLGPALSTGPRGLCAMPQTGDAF
The experiment in a line: EMSA; fluorescence-based EMSA kit. The settings on record: tags: pCS2-VentX, TNT reticulocyte lysate. As to the method: Lysate Systems, Promega). […] Gel shift assay was performed with a fluorescence-based Electrophoretic Mobility Shift Assay (EMSA) Kit from Invitrogen following the manufacturer's instruction. The following double-stranded oligonucleotides were used in the experiments: 5′-[…]-3′ (wild type M-CSFR probe, putative homeodomain binding sequence is in bold and underlined); 5′-[…]-3′ (mutant M-CSFR);

B1: M-CSFR promoter probe wild type (dsDNA)
DNA 1: CTGCGTCTCTAAAATAATAATAATAAATTTTTAAAAGATATGC
DNA 2: GCATATCTTTTAAAAATTTATTATTATTATTTTAGAGACGCAG
Regarding B1, the binding result is “binds”.
